Measured values published in the nanobody polyreactivity screen of Harvey et al. (2022).

Test: yeast display, Sf9 membrane polyspecificity reagent, FACS + sequencing; frameworks hold sequencing errors
In short: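 Synthetic nanobody libraries on Saccharomyces cerevisiae BJ5465 were galactose-induced for 36–48 hours, stained 1 hour at 4 °C with 10% biotinylated, detergent-solubilized Sf9 membrane reagent and enriched on streptavidin microbeads. FACS then separated cells into low and high (top ~1%) gates by anti-HA (expression) and streptavidin (reagent binding) fluorescence. Genes were colony-PCR amplified, MiSeq 2 × 250 sequenced and CDR-length filtered. A clone's polyreactivity label is that of its gate of origin.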

| Sequence | polyreactivity (PSR sort gate) |
| --- | --- |
| KVQLVESGGGLVQAGGRLRLSCAASGGTFVINVMGWYRQAPGKERELVAAISWNGDSTYYADSVKGRFTISRDNAKNTVYLQMNSLKPEDTAVYYCATDTWRVYYAYWQFGVWELGYWGQGTQVTVSS | low polyreactivity |
| KVQLVESGGGLVQAGGSLRFSCAPSGSIFSGNTMGWYRQAPGKEREMVAAITRSGDTTYYADSVKGRFTISRDYAKNTVYLQMNSLKPEDTAFYYCAAALPRYRSRAIRVEFWGQGSQVTVSS | high polyreactivity |
| KVQLVESGGGLVQAGGSLRISCAASGRICWGYVMGWYRQAPGKERELVAAISSGGDTHYADSVKGRFTISRDNAKNTVYLQMNSLKPEDTGVYYCAARPNFTPYEYGYWGQGTQVTVSS | low polyreactivity |
| KVQLVESGGGLVQAGGSLRISCAASGSTLYRYAMGWYRQAPGKERELVAAISSSGGSTYYADSVKGRFTISRDNAKNTVYLQMNSLKPEDTAVYYCARVAPASGVRWYYYWGQGTQVTVSS | high polyreactivity |
| KVQLVESGGGLVQAGGSLRLSCAASGFTFRSYAMGWYRQAPGKERDFVAAITINGGSTYYADSVKGRFTISRDNAKNTVYLQMNSLKPEDTAVYYCAAGTLYRIRGYPLWQYDYWGQGTQVTVSS | high polyreactivity |
| KVQLVESGGGLVQAGGSLRLSCAASGGTFYRYAMGWYRQAPGKERELVAAITSGSSTYYADSVKGRFTISRDNAKNTVYLQMNSLKPEDTAVYYCAAARYSRLSRTRPGKYGYWGQGTQVTVSS | low polyreactivity |
| KVQLVESGGGLVQAGGSLRLSCAASGNIFIPYAMGWYRQAPGKEREFVAVISTRGGSTYYADSLKGRFTISRDNAKNTVYLQMNSLKPEYTAVYYCAAGALGPRIKGWWFRRSFFYWGQGTQVTVSS | high polyreactivity |
| KVQLVESGGGLVQAGGSLRLSCAASGRIFVGYAMGWYRQAPGKERELVAAINRSGSSTYYADSVKGRFTISRYNAKNTVYLQMNSLKPEDTAVYYCNARSGKRYGPRYDYWGQGTQVNVSS | high polyreactivity |
| KVQLVESGGGLVQAGGSLRLSCAASGSIFPSYVMGWYRQAPGKERELVAAITKSTGTTYYADSVKGRFTISRDNAKNTVYLQMNSLKPEDTAVYYCNAPYWFSPGYGGFEFGYDYWGQGTQVTVSS | low polyreactivity |
| KVQLVESGGGLVQAGGSLRLSCAASGSIISGNAMGWYRQAPGKERELVAAISRSGGRTYYADSVKGRFTISRDNAKNTVYLQMNSLKPEDTAVYFCAAGRSLRGDYWGQGTQVTVSS | high polyreactivity |
| KVQLVESGGGLVQAGGSLRLSCAASGSISANYAMGWYRQAPGKERELVAAISRRGASTYYADSVKGRFTISRDNAKNTVYLQMNSLKPEDTAVYYCNAKKYHVPGVDYWGQGTQVTVSS | high polyreactivity |
| KVQLVESGGGLVQAGGSLRLSCAASGSTFSLYTLGGYRQAPGTERELVAAITNGGSTKYADSVKGRFTISRDNAKNTDYFQMNSLKPEDTAVYYCAALYSHYYWIEYDYWGQGTQVTVST | low polyreactivity |
| KVQLVESGGGLVQAGGSLRLSCAASGSTFYQYAMGWYRQAPGKERELVAVITGSGGSTYYADSVKGRFTISRDNAKNTVYLQMNSLKPEDTAVYYCAAGARYFKYRTTSLGGNYWGQGTQVTVSS | high polyreactivity |
| KVQLVESGGGLVQAGGSLRLSCDASGSTFQYYTMGWYRQAPGKESELVAAISADGGNTYYADSVKGRFTISRDNAKNTVYLQMNSLKPEDTAVYYCNADVSLTLRTLVPGRAYDYWGQGTQVTVSS | low polyreactivity |
| KVQLVESGGGLVQAGGTLRLSCAASGSTFTPYAMVWYRQAPGKERELVAAIWIGGNTYYADSVKGRFTISRDNAKNTVYLQMNSLKPEDTAVYYCATENVDPDHYYDWGYDYWGQGTQVTVSS | low polyreactivity |
| KVQLVESGGVLVQEGGRLRLSCAASGRTFQLNAMGWYRQAPGKEMELVAAISTRGGSTYYADSVKGRFTISRDNAKNSVYLQMNSLKPEDTAGYYCAKDPSFTRGYKEGGGYDYWGQGTQVTVSS | high polyreactivity |
| KVQLVESRGGLVQAGGSLRLSCAASGRTFIRYAMGWYRQAHGKEREFVAAITWSGGSTYYADSVKGRFTISRDNAKNTVYLQMNSLKPEDTAVYYCAKYPAARAVDYWGQGSQVTVSS | high polyreactivity |
| LLQLVESVGGLVQAGGTLRLSCAASRSTFHANTLGGYRKAPGKERELVAAISIRGANTYYADSVKGRLTISSDNAKNTVYLQMNSLKREDTAVYYCATRVRKYSLRLDYWGQGTQVTVSS | high polyreactivity |
| LVQLQESGGGLVQACGSLRLSCAASGDIFDADIMGWYRQAPGKERELVASITDGGSTNYADSVKGRFTISRDNAKNTVYLPMNSLKPEDTAVYYCAKPATYYELDYWGQGTQVTVSS | low polyreactivity |
| LVQLQESGGGLVQAGGSLRLSCAASGSIYKVVDMGLYRQAPAKEREFVATIGEGGNTYYADSVKGRFTISRDNAKNTVYLQMNSLKPEDTAVYYCNDDIGVYAYESDYWGQGTQVTVSS | low polyreactivity |
| LVQLQESGGGLVQAGGSLRLSCAASGTISPGGYMGWYRQAPGKERELVASMNVGGSTNYADSVKGRFTISRDNAIITVYLQMNSLKPEDNAVYYCAVWGRNRLQLSYWGQGTQVTVSS | low polyreactivity |
| LVQLVESGGGLVQAGGSLRLICAASGITISYNAMGWYRQAPGKERELVAAITGSDGITYYADSVKGRFTISRDNAKNTVYLEMNSLKPEDTAVYYCAAEWWDYWYEYDYWGQGTQVTVSS | high polyreactivity |

| Sequence | polyreactivity (PSR sort gate) |
| --- | --- |
| LVQLVESGGGLVQAGGSLRLSCAASGFTFGRNAMGWYRQSPGKEREFVADISGSVGSTYYADSVKGRFTISRDNAKNSVYLQMNRLIPEDTAVYYCAADTLYPRWEFDYWGQGTQVTVSS | high polyreactivity |
| LVQLVESGGGLVQAVGSLRLSCAASGFTIYGNAMGWYRRAPGKERELVAAITWRGGSTYYADSEKGRFTISRDNAKNTVYLQMNSLKPEDTAVYYCNALKGRPVRSYLASPSYRYDYWGQGTQVTVSS | high polyreactivity |
| PVQIVESGGGLVQAGGSLRLSCAASGFTFYSNAMGWYRQAPGKEWEMVAAISFSGTRTYYADSVKGRFTISRDNEKNTVYLQMNSLKPEDTAVYYCNAVAYNYPRTYDYWGQGTQVTVSS | high polyreactivity |
| PVQLVDSGGGLVQAGGSLRLSCAASGRIFYGYALGWYRQAPGKERDLDAAIDWSGGSTYADSVTGRFTISRDNAKNTVYLPMHSLKPEDTAVYYCATDWVTSQQPYYWIYEYWGQGTQVTVSS | low polyreactivity |
| PVQLVDSGGGLVQAGGSLRLSCAASGSTFQRNVMGWYRQAPGKERELVAAITWRGTSTYYADSVKGRFTISRDNAKNTVYLQMNSLKPEDTAVYYCAAERTRSGYYYDYWGQGTQVTVSS | high polyreactivity |
| PVQLVESGGGFVQAGGSLRLSCAASGFTFYVNAMGWYRQAPGKERELVAAISGSGGSTYYADSVKGRFTISRDNAKNTVYLQMNSLKPEDTAGYYCAADAYNPPYWDDPYDYWGQGTQVTVSS | high polyreactivity |
| PVQLVESGGGLVQAGGSLRLICAASGRIFEINAMGWYRQAPGKERELFAAITRGGRTYYADSVKGRFTSSRDNAMNTVYLQMTSLKPEDTAVYYCAAYGHIRSGFDCVDYWGQGTQVTVSS | high polyreactivity |
| PVQLVESGGGLVQAGGSLRLSCAASGFIFSWYAMGWYRPAPGKDRELVAAISRSGGSTYADSVKGRFTIARDNAKNTVYLQMNSLKPEDTAVYYCAAGSYWSYWDSRYDYWGQGTQVTVSS | low polyreactivity |
| PVQLVESGGGLVQAGGSLRLSCAASGSIFASYAMGWYREAPGKERELVAAISSSSGSTYYADSVKGRFTISRDNAKNTVYLQMTSLKPEDTAVYYCAAESGRRIKYWRGYYYWGQGTQVTVSS | low polyreactivity |
| PVQLVESGGGLVQAGGSLRLSCAASGSNFEYYTMGWYRQAPGKERELVATISRSADRTYYADSVKGRFTISRDYAKNTVYLQMNILKPEDTAVYDCAKLYPRTTQWIYDYWGQGTQVTVSS | high polyreactivity |
| PVQLVESGGGVVQAGGSLRLSCAASGSIFDENAKGWNRQAPGKERELVAAISSGGSTNYADSVKGRFTITRDNAKNTVYLQMNSLKPEDTAVYYCNNKSRRQYDYWGQGTQVTVSS | low polyreactivity |
| PVQLVESGGVLVQAGGSLRLSCAASGRTFSYYAMGWYRQAPGKERELVADNNCSGTSTDYADSVKGRFTISRDNAKNTVYLQMHSLKPEDTEVYYCPAYLIVYYGDETPYASLHDYWGQGTQVSVSS | low polyreactivity |
| PVQLVESGGVLVQAGGSLRVSCAASGSILLIYSMGWSIQAPGKERELVAGINWSGSRAYYADSVKGRFTISRDNAQNTVYLQMNSLKPEDTAVYYCAARGRRPLYSAYDSWGQGTQVTVSS | low polyreactivity |
| QAELVESGGGLVQAGGSLRLSSAASGIIFDVYAMGWYRQAPGKERELVASIRWRGGSTYYADSVKGRFTISRDNAKNTVFLQMNSLKPEDTAVYYCAADLTRWYGRTYNYWGQGTQVTVSS | high polyreactivity |
| QAQLVESGGGLVQAGGSLRLSCAASGSIMYYAMGWYRHAPWKERELVATITRGGSTYYADSVKGRFTISRDNAKNTVYLQMNSLKPEDTAVYYCAKQFLPSGVYYEYDSWGQGTQVTVSS | low polyreactivity |
| QCQREESGGGLVQAGGRLRLSCAASGLILIYYAMGWYRQAPGKERELVAAITSSGGSTYYADSVKGRFTISRDNAKNTVYLQMNSLKREDTAVYYCAAYYSGDGYYWGQGTQVTVSS | high polyreactivity |
| QDALVESCGGLVQAGGSLRLICAASGSTFDTYALGWYRQAPAKEWELVAGISWSGGSTFFADSVKGRFTISRDNAKNTVSLQMNSLKPEDTAVYDCAKQLWVGVKYDYWGQGPQVTVSS | low polyreactivity |
| QDDLVESGGGLVQAGGSLRFRGAASGYTFEKYAMGWKRQAPGKERELFASISWSGGRTRYADSVKGRFTISRDNAKNTDSLQMNSLQPEDTAVDYCAARGAYKSGYNRNEYWGQGTQVTVSS | high polyreactivity |
| QDELVESGGGLVQAGGSLRLSCAASGRIFPFYAMGWNRQAPGKERDFVAAITYSGGNTNYADSVKGRFTISRDNAKNTVYLQMNSLKPEDTAVYYCAAVLGYGDYYQEDYWGQGTQVTVSS | low polyreactivity |
| QDHLVESGGCLVQAGGTLRLSCAASGFTIGNYAMAWYRQPPGKERELVAAISWSGGSTYYADSVKGRFTISRDNAKNTVYLQMNSLNPEVTAVYYCNPKRGSLWESDYWGQGSQVTVSS | high polyreactivity |
| QDHLVESGGGLVQAGGSLRLSCAASGRIFSYYVMGWYRQAPGKERELVAAITSGCSTNYADSVKGRFTISRDNAKNNVYLQMNSLKPEDTAVYYFNRAYTYINRLYGYWGQGTQVTVSS | high polyreactivity |
